This assay concerns the target human PD-1 (programmed cell death 1) (human) (UniProt Q15116). Put plainly: column Affinity (nM); by the footnote of Tables 3 and 11: FACS staining of endogenous cell surface PD-1 on activated CD4 T cells [row BMS-5C4].
Chain of UniProt Q15116 (Q15116 25-288 limits assumed): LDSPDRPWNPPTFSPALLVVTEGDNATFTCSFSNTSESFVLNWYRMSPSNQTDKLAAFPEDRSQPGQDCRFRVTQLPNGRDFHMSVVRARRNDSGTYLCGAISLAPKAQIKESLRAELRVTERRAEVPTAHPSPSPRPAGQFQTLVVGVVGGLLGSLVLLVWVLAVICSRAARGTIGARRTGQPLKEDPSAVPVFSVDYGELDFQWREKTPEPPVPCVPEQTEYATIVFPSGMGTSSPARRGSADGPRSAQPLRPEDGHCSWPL

As to BMS-5C4 (antibody), the Affinity is 0.6 nM.

(Values after US20180265582A1.)
